Assay results reported in PMC6479716.

Target: AEDANS labelled N-ter hexahistidine tagged LMV VPg (Lettuce mosaic virus (isolate AF199))
Experiment: fluorescence polarisation; steady state fluorescence anisotropy of AEDANS labelled His6 VPg* (300 nM) on addition of His6 eIF4E; 25 °C, 20 mM HEPES pH 7.5, 0.25 mM NaCl, 1 mM DTT

B1: N-ter hexahistidine tagged lettuce eIF4E (natural protein)
chain: MVEEIMKSEEQKLIDVNKHRGVRSDGEEDEQLEEGEIVGGDADTLSSSSSSRPGTAIAQHPLEHSWTFWFDTPSAKSKQVAWGSSMRPIYTFSSVEEFWSLYNNIHRPSKLAQGADFYCFKNKIEPKWEDPVCANGGKWTMTFTKAKSDTCWLYTLLAMIGEQFDHGDDICGAVVNVRARQEKIALWTKNAANESAQLSIGKQWKEFIDYNDTIGFIFHEDAKTLDRSAKNKYTV
Kd: 63 nM
